Test results from US20220363757A1 (SYMPHOGEN A S, published 2022).
Positions count from the first letter of the chain named. In names and notes the source's numbering stands.

T1: human LAG-3 on transiently transfected CHO-S cells (human, UniProt P18627 23-525)
T1 construct: also called huLAG-3
T1 sequence: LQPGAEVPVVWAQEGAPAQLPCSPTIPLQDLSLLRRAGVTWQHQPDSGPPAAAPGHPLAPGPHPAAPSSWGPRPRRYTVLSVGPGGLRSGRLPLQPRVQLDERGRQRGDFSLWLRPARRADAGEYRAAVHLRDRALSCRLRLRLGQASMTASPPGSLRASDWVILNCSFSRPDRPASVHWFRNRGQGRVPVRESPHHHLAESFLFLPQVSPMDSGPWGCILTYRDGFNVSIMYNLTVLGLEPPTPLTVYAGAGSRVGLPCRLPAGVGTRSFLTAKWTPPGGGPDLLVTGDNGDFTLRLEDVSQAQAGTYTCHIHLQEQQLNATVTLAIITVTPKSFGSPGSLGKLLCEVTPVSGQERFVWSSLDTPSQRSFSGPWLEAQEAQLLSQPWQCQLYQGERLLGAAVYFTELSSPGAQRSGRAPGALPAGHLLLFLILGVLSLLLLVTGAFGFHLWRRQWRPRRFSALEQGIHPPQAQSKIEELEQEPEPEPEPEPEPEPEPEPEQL

T2: R-PE-labeled recombinant human LAG-3-Fc chimera protein (R&D Systems) (human, UniProt P18627 23-450, conjugated to R-phycoerythrin)
T2 construct: bought; also called LAG-3-Fc-PE; soluble LAG-3; not shown: Fc of the bought chimera, not described
T2 sequence: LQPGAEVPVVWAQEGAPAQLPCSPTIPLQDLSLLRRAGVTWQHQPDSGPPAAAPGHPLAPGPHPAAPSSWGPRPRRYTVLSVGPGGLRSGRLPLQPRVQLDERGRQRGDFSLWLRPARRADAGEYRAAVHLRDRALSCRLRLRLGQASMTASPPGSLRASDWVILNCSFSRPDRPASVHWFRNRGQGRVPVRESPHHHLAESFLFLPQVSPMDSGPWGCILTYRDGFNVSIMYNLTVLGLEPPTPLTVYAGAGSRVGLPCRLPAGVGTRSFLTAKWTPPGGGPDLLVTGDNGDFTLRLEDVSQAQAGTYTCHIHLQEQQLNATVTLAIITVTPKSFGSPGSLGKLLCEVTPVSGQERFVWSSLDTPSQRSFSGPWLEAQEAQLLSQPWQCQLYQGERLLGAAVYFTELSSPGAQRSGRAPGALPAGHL

B1: antibody 15646 (antibody, human IgG1, kappa, L234A L235A, V domains shown)
VH: QVQLQQWGAGLLKPSETLSLTCAVYGGSFSGYYWSWIRQPPGKGLEWIGEINHRGSTNYNPSLKSRVTISVDTSKNQFSLKLSSVTAADTAVYYCTRGEEWESLFFDYWGQGTLVTVSS
VL: EIVLTQSPATLSLSPGERATLSCRASQSISSYLAWYQQKPGQAPRLLIYGASNRATGIPARFSGSGSGTDFTLTISSLEPEDFAVYYCQQRSNWPLTFGGGTRVEIKR
notes: OmniRat-derived human IgG1 with L234A/L235A (LALA), kappa; also called 15646 (15)
B2: antibody 15723 (antibody, human IgG1, kappa, L234A L235A, V domains shown)
VH: B1 VH with S35N, R54S, T96A, E100D, E102G, S103E, L104S
VL: B1 VL with I29V, G50A, R103K
notes: OmniRat-derived human IgG1 LALA, kappa; also called 15723 (39)
B3: antibody 15572 (antibody, human IgG1, kappa, L234A L235A, V domains shown)
VH: QLQLQESGPGLVKPSETLSLTCTVSGDSISSSSYYWGWIRQPPGKGLEWIGSIFYSGNTYYNPSLKSRVTISVDTSKNQFSLKLSSVTAADTAVYYCAREDDFLTDYYGAFDIWGQGTMVTVSS
VL: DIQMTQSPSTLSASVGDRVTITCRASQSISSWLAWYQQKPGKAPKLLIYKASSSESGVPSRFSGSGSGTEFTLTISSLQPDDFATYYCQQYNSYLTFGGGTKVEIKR
notes: OmniRat-derived human IgG1 LALA, kappa; also called 15572 (91)
B4: antibody 15532 (antibody, human IgG1, kappa, L234A L235A, V domains shown)
VH: QVQLQQWGAGLLRPSETLSLTCAVYGESFSGYYWNWIRQPPGKGLEWIGEINHSGSTNYNPSLKSRVTISVDTSKTQFSLKLSSVTAADTAVYYCARGWDLLDWNDYWNEYWGQGTLVTVSS
VL: B1 VL with I29V, G50D, R103K
notes: OmniRat-derived human IgG1 LALA, kappa
B5: antibody 15595 (antibody, V domains shown)
VH: QVQLVQSGAEVKKPGASVKVSCKVSGYSLTEISMHWVRQAPGKGLEWMGGFDPEDGETIYAQRFQGRVIMTEDTSTDTAYMELSSLRSEDTAVYYCATGGWGPNWFDPWGQGTLVTVSS
VL: DIQMTQSPSSVSASVGDRVTITCRASQGISSWLAWYQQKPGKAPKLLIYAASSLQSGVPSRFSGSGSGTDFTLTISSLQPEDFATYYCQQANSFPFTFGPGTKVDIKR
notes: OmniRat-derived human IgG1 LALA, kappa; also called 15595 (52)
B6: antibody 15431 (antibody, human IgG1, kappa, L234A L235A, V domains shown)
VH: QVQLQQSGPGLVKPSQTLSLTCAISGDSVSSNSAAWNWIRQSPSRGLEWLGRTYYRSKWYNDYAVSVKSRITINPDTSKNQFSLQLNSVTPEDTAVYYCARDDDWNDFDYWGQGTLVTVSS
VL: B1 VL with I29V, G50D, R103K
notes: OmniRat-derived human IgG1 LALA, kappa; also called 15431 (38); 15431 (83)
B7: antibody 15011 (antibody, human IgG1, lambda, L234A L235A, V domains shown)
VH: EVQLLESGGGLVQPGGSLRLSCAASGFDFRSYAMMWVRQAPGKGLEWVGGINGEVGGSNTYYAPAVKGRATISRDNSKNTLYLQMNSLRAEDTAVYYCVKGAGACGICNDDIDAWGQGTLVTVSS
VL: SYELTQDPAVSVALGQTVRITCSGAGSYAGSYYYGWHQQKPGQAPVTVIYDNDKRPSNIPDRFSGSSSGNTASLTITGAQAEDEADYYCGSTNDNDDGGLFGSGTKVTVLG
notes: humanized chicken-derived antibody, human IgG1 constant region, lambda (IGLC1*01)

Assays:
[1] = target: T1, human LAG-3 on transiently transfected …; assay: flow cytometry on transfected CHO-S cells
[2] = target: T2, R-PE-labeled recombinant human LAG-3-Fc …; assay: flow cytometric competition, LAG-3-Fc-PE binding to MHCII on A375 cells, antibody 20 ug/mL

| Binder | EC50 [1] | LAG-3/MHCII Blocking (%) [2] |
| --- | --- | --- |
| B1 | 0.1 nM | 49% |
| B2 | 0.09 nM | 55% |
| B3 | 0.07 nM | 37% |
| B4 | 0.07 nM | 89% |
| B5 | 0.05 nM | 94% |
| B6 | 0.04 nM | 92% |
| B7 | – | 92% |
